Marks after values point to notes of the source that are not given here.
What was measured:
CN1CCC[C@H]1c1cccnc1 = assay: Nicotine demethylase assay, yeast microsomal membrane preparations incubated with [^14C]-nicotine, products resolved by thin layer chromatography; assay type: biochemical, Nicotiana tabacum; conditions: other: substrate saturation curve across a wide range of [^14C]-nicotine concentrations; microsomes from yeast strain W(R) expressing CYP82E10 cDNA
Text: (§1) To determine whether CYP82E10 functions as a nicotine demethylase gene, its cDNA was cloned into the yeast expression vector pYeDP60 and transformed into yeast strain W(R). Strain W(R) is a yeast cell line that was engineered to overexpress the yeast NADPH-dependent P450 reductase, an enzyme that serves as the direct electron donor to P450s; this system greatly enhances the detection of foreign P450 enzyme activities that are expressed in yeast (Pompon et al., 1995). Nicotine demethylase assays were conducted by incubating yeast microsomal membrane preparations with [^14C]-nicotine, and resolving the products by thin layer chromatography as described in Siminszky et al. (2005).

[1] = test system: CYP82E10 nicotine demethylase; assay: Nicotine demethylase assay, yeast microsomal membranes with [14C]-nicotine, CYP82E10 and variants; assay type: biochemical, tobacco
Text: as §1
The nucleotide and amino acid residues mutated in these plants are also highlighted in FIG. 1. Although no truncation mutations were observed among these individuals, in several cases, mutations were identified that altered an amino acid residue within a highly conserved region of the enzyme. To determine the effects of a particular mutation on CYP82E10 enzyme activity, site-directed mutagenesis was used to introduce the specific mutations corresponding to seven of the nine mutations shown in Table 2 into the CYP82E10 cDNA within the pYeDP60 yeast expression vector. Microsomal preparations from yeast strains expressing each of the seven CYP82E10 variants were assayed in vitro for nicotine demethylase activity using both non-saturating (2.45 μM) and saturating (50 μM) concentrations of [^14C]-nicotine.

[2] = test system: CYP82E10 nicotine demethylase; assay type: cell-based, tobacco; conditions: cultures shaken overnight with 55 μM [14C]-nicotine, methanol extract, TLC
Experimental: Nicotine demethylase activities of wild type and 1041 mutant CYP82E10-expressing yeast cells was also assayed in vivo.

[3] = test system: CYP82E10 nicotine demethylase; assay: Nicotine demethylase assay, yeast microsomal membranes with [14C]-nicotine, CYP82E10 and variants; assay type: biochemical, tobacco; conditions: at the 25 μM substrate level
[4] = test system: CYP82E5 nicotine demethylase; assay: Nicotine demethylase activity of CYP82E5 variants (method not described); assay type: biochemical, tobacco
[5] = biological target: CYP82E4 nicotine demethylase (Nicotiana tabacum, UniProt Q38Q87, V376M)
CYP82E4 nicotine demethylase (Nicotiana tabacum, UniProt Q38Q87, V376M), sequence (Q38Q87 whole entry V376M): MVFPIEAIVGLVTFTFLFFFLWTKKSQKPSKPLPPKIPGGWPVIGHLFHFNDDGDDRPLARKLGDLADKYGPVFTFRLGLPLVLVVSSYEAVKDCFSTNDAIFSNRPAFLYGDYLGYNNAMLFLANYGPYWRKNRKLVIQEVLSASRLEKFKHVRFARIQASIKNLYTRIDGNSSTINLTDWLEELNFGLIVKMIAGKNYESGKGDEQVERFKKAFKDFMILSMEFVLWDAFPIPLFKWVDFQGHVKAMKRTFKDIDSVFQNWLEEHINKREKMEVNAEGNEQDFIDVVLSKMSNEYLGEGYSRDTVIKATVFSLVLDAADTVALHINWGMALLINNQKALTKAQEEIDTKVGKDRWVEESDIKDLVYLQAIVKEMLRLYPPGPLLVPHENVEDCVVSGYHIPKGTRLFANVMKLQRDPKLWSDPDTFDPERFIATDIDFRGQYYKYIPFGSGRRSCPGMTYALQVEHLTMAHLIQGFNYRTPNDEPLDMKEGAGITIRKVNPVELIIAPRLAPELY

[6] = test system: CYP82E4v2 nicotine demethylase; assay type: biochemical, tobacco; conditions: counts per minute of [14C]-nornicotine/mg microsomal protein; ± SD of two technical replications
Text: as §1
The thin layer chromatographic data for the in vitro yeast expression assays corresponding to the plant 1041 mutation are shown in FIG. 3. This particular mutation was selected for more extensive investigation. To provide additional confirmation that the Pro to Ser substitution at amino acid position 381 that defines the plant 1041 mutation is incompatible with nicotine demethylation function, this same mutation was introduced into a CYP82E4v2 cDNA that had been similarly cloned into the pYeDP60 vector. […] Whether introduced into the CYP82E10 or CYP82E4v2 enzymes, a Ser substitution for Pro at position 381 leads to the complete ablation of nicotine demethylase activity in this assay.

[7] = test system: CYP82E4 nicotine demethylase
[8] = counts per minute of [14C]-nornicotine/mg microsomal protein, ± SD of two technical replications

Nicotiana tabacum CYP82E10 nicotine demethylase, wild type, SEQ ID NO:2 (Nicotiana tabacum)
Km (CN1CCC[C@H]1c1cccnc1): 3.9 µM

B1: CYP82E10: wild type root-specific tobacco nicotine demethylase (cytochrome P450) expressed in yeast (protein, listed as Nicotiana tabacum)
chain: MVSPVEAIVGLVTLTLLFYFIRTKKSQKPSKPLPPKIPGGWPVIGHLFYFDDDSDDRPLARKLGDLADKYGPVFTFRLGLPLVLVVSSYEAIKDCFSTNDAIFSNRPAFLYGEYLGYNNAMLFLTKYGPYWRKNRKLVIQEVLCASRLEKLKHVRFGEIQTSIKNLYTRIDGNSSTINLTDWLEELNFGLIVKMIAGKNYESGKGDEQVERFRKAFKDFIILSMEFVLWDAFPIPLFKWVDFQGHVKAMKRTFKDIDSVFQNWLEEHVKKKEKMEVNAEGNEQDFIDVVLSKMSNEYLDEGYSRDTVIKATVFSLVLDAADTVALHMNWGMALLINNQHALKKAQEEIDKKVGKDRWVEESDIKDLVYLQTIVKEVLRLYPPGPLLVPHENVEDCVVSGYHIPKGTRLFANVMKLQRDPKLWSNPDKFDPERFFAADIDFRGQHYEFIPFGSGRRSCPGMTYAMQVEHLTIAHLIQGFNYKTPNDEPLDMKEGAGLTIRKVNPIEVVITPRLTPELY
CPM nornicotine at 2.45 μM [14C]-nicotine substrate [1, 8]: 2,296 ± 99 ^ CPM | CPM nornicotine at 50.0 μM [14C]-nicotine substrate [1, 8]: 15,253 ± 465 CPM | nicotine demethylase (enzyme) activity, result in words ([1]; yeast microsomes, [14C]-nicotine): very robust nicotine demethylase activity | nornicotine detected in extracts of yeast [2]: could be detected | rate of [14C]-nornicotine synthesis relative to preparations containing CYP82E4v2 [3]: nearly three times greater

B2: CYP82E5 P449L: CYP82E5 variant with leucine for proline at position 449 (protein, listed as Nicotiana tabacum)
chain: MVSPVEAIVGLVTLTLLFYFLWPKKFQIPSKPLPPKIPGGWPVIGHLFYFDDDGDDRPLARKLGDLADKYGPVFTFRLGLPLVLVVSSYEAVKDCFSTNDAIFSNRPAFLYGEYLGYSNAMLFLTKYGPYWRKNRKLVIQEVLSASRLEKLKHVRFGKIQTSIKSLYTRIDGNSSTINLTDWLEELNFGLIVKMIAGKNYESGKGDEQVERFRKAFKDFIILSMEFVLWDAFPIPLFKWVDFQGHVKAMKRTFKDIDSVFQNWLEEHVKKREKMEVNAQGNEQDFIDVVLSKMSNEYLDEGYSRDTVIKATVFSLVLDAADTVALHMNWGMALLINNQHALKKAQEEIDKKVGKERWVEESDIKDLVYLQAIVKEVLRLYPPGPLLVPHENVEDCVVSGYHIPKGTRLFANVMKLQRDPKLWSNPDKFDPERFFADDIDYRGQHYEFILFGSGRRSCPGMTYALQAEHLTIAHLIQGFNYKTPNDEPLDMKEGAGLTIRKVNPVEVTITARLAPELY
modifications: CYP82E5 P449L
effect of mutation on nicotine demethylase activity, in words [4]: inhibition of its nicotine demethylase activity

B3: SEQ ID NO:33: CYP82E5 variant with stop codon for tryptophan at position 422 (protein, listed as Nicotiana tabacum)
chain: MVSPVEAIVGLVTLTLLFYFLWPKKFQIPSKPLPPKIPGGWPVIGHLFYFDDDGDDRPLARKLGDLADKYGPVFTFRLGLPLVLVVSSYEAVKDCFSTNDAIFSNRPAFLYGEYLGYSNAMLFLTKYGPYWRKNRKLVIQEVLSASRLEKLKHVRFGKIQTSIKSLYTRIDGNSSTINLTDWLEELNFGLIVKMIAGKNYESGKGDEQVERFRKAFKDFIILSMEFVLWDAFPIPLFKWVDFQGHVKAMKRTFKDIDSVFQNWLEEHVKKREKMEVNAQGNEQDFIDVVLSKMSNEYLDEGYSRDTVIKATVFSLVLDAADTVALHMNWGMALLINNQHALKKAQEEIDKKVGKERWVEESDIKDLVYLQAIVKEVLRLYPPGPLLVPHENVEDCVVSGYHIPKGTRLFANVMKLQRDPKL
modifications: CYP82E5 W422Stop Variant
inhibition of nicotine demethylase activity (knocked out) [4]: 100%

B4: CYP82E4 V376M: CYP82E4 variant with methionine for valine at position 376 (protein, listed as Nicotiana tabacum)
chain: MLSPIEAIVGLVTFTFLFFFLWTKKSQKPSKPLPPKIPGGWPVIGHLFHFNDDGDDRPLARKLGDLADKYGPVFTFRLGLPLVLVVSSYEAVKDCFSTNDAIFSNRPAFLYGDYLGYNNAMLFLANYGPYWRKNRKLVIQEVLSASRLEKFKHVRFARIQASIKNLYTRIDGNSSTINLTDWLEELNFGLIVKMIAGKNYESGKGDEQVERFKKAFKDFMILSMEFVLWDAFPIPLFKWVDFQGHVKAMKRTFKDIDSVFQNWLEEHINKREKMEVNAEGNEQDFIDVVLSKMSNEYLGEGYSRDTVIKATVFSLVLDAADTVALHINWGMALLINNQKALTKAQEEIDTKVGKDRWVEESDIKDLVYLQAIVKEMLRLYPPGPLLVPHENVEDCVVSGYHIPKGTRLFANVMKLQRDPKLWSDPDTFDPERFIATDIDFRGQYYKYIPFGSGRRSCPGMTYALQVEHLTMAHLIQGFNYRTPNDEPLDMKEGAGITIRKVNPVELIIAPRLAPELY
modifications: CYP82E4 V376M Variant
nicotine demethylase activity relative to the wild-type CYP82E4 polypeptide [5]: about 50%

B5: pYeDP60-CYPE4v2/1041: CYP82E4v2 enzyme possessing the 1041 mutation (Pro381Ser) (protein, listed as Nicotiana tabacum)
chain: MLSPIEAIVGLVTFTFLFFFLWTKKSQKPSKPLPPKIPGGWPVIGHLFHFNDDGDDRPLARKLGDLADKYGPVFTFRLGLPLVLVVSSYEAVKDCFSTNDAIFSNRPAFLYGDYLGYNNAMLFLANYGPYWRKNRKLVIQEVLSASRLEKFKHVRFARIQASIKNLYTRIDGNSSTINLTDWLEELNFGLIVKMIAGKNYESGKGDEQVERFKKAFKDFMILSMEFVLWDAFPIPLFKWVDFQGHVKAMKRTFKDIDSVFQNWLEEHINKREKMEVNAEGNEQDFIDVVLSKMSNEYLGEGYSRDTVIKATVFSLVLDAADTVALHINWGMALLINNQKALTKAQEEIDTKVGKDRWVEESDIKDLVYLQAIVKEVLRLYPSGPLLVPHENVEDCVVSGYHIPKGTRLFANVMKLQRDPKLWSDPDTFDPERFIATDIDFRGQYYKYIPFGSGRRSCPGMTYALQVEHLTMAHLIQGFNYRTPNDEPLDMKEGAGITIRKVNPVELIIAPRLAPELY
modifications: CYP82E4 P382S Variant
CPM nornicotine at 2.45 μM [14C]-nicotine substrate [6]: Not detected | CPM nornicotine at 50.0 μM [14C]-nicotine substrate [6]: Not detected | inhibition of nicotine demethylase activity (knocked out) [7]: 100%

B6: CYP82E4 P458S: CYP82E4 variant with serine for proline at position 458 (protein, listed as Nicotiana tabacum)
chain: MLSPIEAIVGLVTFTFLFFFLWTKKSQKPSKPLPPKIPGGWPVIGHLFHFNDDGDDRPLARKLGDLADKYGPVFTFRLGLPLVLVVSSYEAVKDCFSTNDAIFSNRPAFLYGDYLGYNNAMLFLANYGPYWRKNRKLVIQEVLSASRLEKFKHVRFARIQASIKNLYTRIDGNSSTINLTDWLEELNFGLIVKMIAGKNYESGKGDEQVERFKKAFKDFMILSMEFVLWDAFPIPLFKWVDFQGHVKAMKRTFKDIDSVFQNWLEEHINKREKMEVNAEGNEQDFIDVVLSKMSNEYLGEGYSRDTVIKATVFSLVLDAADTVALHINWGMALLINNQKALTKAQEEIDTKVGKDRWVEESDIKDLVYLQAIVKEVLRLYPPGPLLVPHENVEDCVVSGYHIPKGTRLFANVMKLQRDPKLWSDPDTFDPERFIATDIDFRGQYYKYIPFGSGRRSCSGMTYALQVEHLTMAHLIQGFNYRTPNDEPLDMKEGAGITIRKVNPVELIIAPRLAPELY
modifications: CYP82E4 P458S Variant
inhibition of nicotine demethylase activity (knocked out) [7]: 100%

B7: pYeDP60-CYPE4v2: wild type senescence-induced tobacco nicotine demethylase CYP82E4v2 expressed in yeast (protein, listed as Nicotiana tabacum)
chain: MLSPIEAIVGLVTFTFLFFFLWTKKSQKPSKPLPPKIPGGWPVIGHLFHFNDDGDDRPLARKLGDLADKYGPVFTFRLGLPLVLVVSSYEAVKDCFSTNDAIFSNRPAFLYGDYLGYNNAMLFLANYGPYWRKNRKLVIQEVLSASRLEKFKHVRFARIQASIKNLYTRIDGNSSTINLTDWLEELNFGLIVKMIAGKNYESGKGDEQVERFKKAFKDFMILSMEFVLWDAFPIPLFKWVDFQGHVKAMKRTFKDIDSVFQNWLEEHINKREKMEVNAEGNEQDFIDVVLSKMSNEYLGEGYSRDTVIKATVFSLVLDAADTVALHINWGMALLINNQKALTKAQEEIDTKVGKDRWVEESDIKDLVYLQAIVKEVLRLYPPGPLLVPHENVEDCVVSGYHIPKGTRLFANVMKLQRDPKLWSDPDTFDPERFIATDIDFRGQYYKYIPFGSGRRSCPRMTYALQVEHLTMAHLIQGFNYRTPNDEPLDMKEGAGITIRKVNPVELIIAPRLAPELY
CPM nornicotine at 2.45 μM [14C]-nicotine substrate [6]: 1,813 ± 623^b CPM | CPM nornicotine at 50.0 μM [14C]-nicotine substrate [6]: 5,383 ± 505 CPM

Reference: patent publication US12310324B2, “Compositions and methods for minimizing nornicotine synthesis in tobacco” (North Carolina State University, priority 2010, dated 2025)
